# Results taken from publication PMC11313003.
# How the values were obtained:
# [1] = target: soluble trimeric-RBD form of the SARS-CoV-2 S protein (RBD aa 330-532, Wuhan strain, with a foldon t (SARS-CoV-2 (ancestral Wuhan strain) | T4 (as in 'T4 fibritin')) (UniProt P0DTC2)); assay: SEC
# [2] = target: soluble trimeric-RBD form of the SARS-CoV-2 S protein (RBD aa 330-532, Wuhan strain, with a foldon t (SARS-CoV-2 (ancestral Wuhan strain) | T4 (as in 'T4 fibritin')) (UniProt P0DTC2)); assay: Western blot under non-reducing conditions
substance,measurement,setting,value
"soluble trimeric-RBD form of the SARS-CoV-2 S protein (RBD aa 330-532, Wuhan strain, with a foldon t (from UniProt P0DTC2 330-532) (domain or fragment)",stoichiometry N,[1],3
same,stoichiometry N,[2],3
